Kd data for 39 substances are collected here from publication PMC7225340.

One experiment addresses cyno IL21R(1-232)-FLAG-His (cynomolgus monkey). The experiment in a line: BLI; ForteBio Octet RED384/HTX, 27 C; 10 mM Tris pH 7.5, 150 mM NaCl, 1 mM CaCl2, BSA, 0.13% Triton X-100; biotinylated human or cyno IL21R(1-232)-FLAG-His captured on streptavidin SAX tips to 2.0 nm; samples in 3-fold dilutions, top 300 nM for mutein fusions; association 20 min, dissociation 1.5 h; global 1:1 fit.
Consider “recombinant human IL-21 (free wild-type cytokine) (from UniProt Q9HBE4 25-162) (ligand)”, for which the Kd worked out at 0.044 nM.

The target in the next experiment is human IL21R-Fc (bivalent) (human) (UniProt Q9HBE5). The experiment in a line: BLI; ForteBio Octet RED384/HTX, 27 C; 10 mM Tris pH 7.5, 150 mM NaCl, 1 mM CaCl2, BSA, 0.13% Triton X-100; receptor reagent bivalent IL21R-Fc (how it was held is not told); samples in 3-fold dilutions, top 10 nM for wild-type IL21 fusions, 300 nM for mutein fusions; association 20 min, dissociation 1.5 h; global 1:1 fit.
Sequence of UniProt Q9HBE5 (Q9HBE5 20-232): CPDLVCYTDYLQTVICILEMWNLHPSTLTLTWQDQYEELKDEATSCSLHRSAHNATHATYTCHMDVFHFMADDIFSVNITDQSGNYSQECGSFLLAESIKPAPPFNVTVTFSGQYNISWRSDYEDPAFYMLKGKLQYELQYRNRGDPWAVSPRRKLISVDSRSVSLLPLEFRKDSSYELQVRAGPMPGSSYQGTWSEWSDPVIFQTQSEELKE
The substance anti-PD-1 mAb x IL-21 K73P, homodimer came in with a Kd of 2 nM.

For the substance anti-PD-1 mAb x IL-21 K73G, homodimer, the Kd amounted to 0.25 nM. anti-PD-1 mAb x IL-21 K72P, homodimer: the Kd was determined as 9 nM. Still for that read-out and setting: for anti-PD-1 mAb x IL-21 K75G, homodimer the value was 0.16 nM; for anti-PD-1 mAb x IL-21 Q12S, homodimer, 0.32 nM. With anti-PD-1 mAb x IL-21 K75P, homodimer, the Kd turned out to be 1 nM. As to anti-PD-1 mAb x IL-21 R65G, homodimer, the Kd worked out at 0.13 nM. As for anti-PD-1 mAb x IL-21 R76M, homodimer, the Kd is 0.6 nM. Still for that read-out and setting: as for anti-PD-1 mAb x IL-21 R5A, homodimer, the figure is 0.24 nM; as for anti-PD-1 mAb x IL-21 Q12T, homodimer, less than 0.26 nM. On the same count and under the same terms, for anti-PD-1 mAb x IL-21 K72D, homodimer the value was 0.24 nM; for anti-PD-1 mAb x IL-21 K73E, homodimer, 0.073 nM.

For anti-PD-1 mAb x IL-21 R76N, homodimer, the Kd worked out at 15 nM. anti-PD-1 mAb x IL-21 R5Q, homodimer yielded a Kd of 2.1 nM. Substance anti-PD-1 mAb x IL-21 K73H, homodimer returned a Kd of 0.19 nM. On the same count and under the same terms, as for anti-PD-1 mAb x IL-21 K72G, homodimer, the figure is 0.25 nM; as for anti-PD-1 mAb x IL-21 R76D, homodimer, 12 nM. Still for that read-out and setting: as for anti-PD-1 mAb x IL-21 K73D, homodimer, the figure is 0.44 nM. On to anti-PD-1 mAb x IL-21 R65P, homodimer, for which the Kd is 0.9 nM. Same read-out and setting: as for anti-PD-1 mAb x IL-21 Q19D, homodimer, the figure is 0.17 nM.

The substance anti-PD-1 mAb x IL-21 Q12E, homodimer registered a Kd of 0.031 nM. The substance anti-PD-1 mAb x IL-21 L13D, homodimer displayed a Kd of 11 nM.

In turn, anti-PD-1 mAb x IL-21 R76K, homodimer had a Kd of 0.2 nM. anti-PD-1 mAb x IL-21 R76L, homodimer: the Kd was 0.2 nM.

Substance “anti-PD-1 mAb x IL-21 K77G, homodimer (from UniProt Q9HBE4 25-162)” came in with a Kd of 0.66 nM. Still for that read-out and setting: as for anti-PD-1 mAb x IL-21 K73S, homodimer, the figure is 0.17 nM; as for anti-PD-1 mAb x IL-21 R76G, homodimer, 2 nM. Still for that read-out and setting: as for anti-PD-1 mAb x IL-21 K73Q, homodimer, the figure is 0.069 nM; as for anti-PD-1 mAb x IL-21 Q12A, homodimer, 0.23 nM. As to anti-PD-1 mAb x IL-21 Q12N, homodimer, the Kd stood at 0.38 nM. The same measure, in the same setting: for anti-PD-1 mAb x IL-21 K73I, homodimer the value was 0.17 nM.

In turn, anti-PD-1 mAb x IL-21 Q12V, homodimer showed a Kd of less than 2.2 nM. Still for that read-out and setting: for anti-PD-1 mAb x IL-21 R76H, homodimer the value was 2 nM; for anti-PD-1 mAb x IL-21 K73A, homodimer, 0.053 nM; for anti-PD-1 mAb x IL-21 R76P, homodimer, 0.4 nM. As for anti-PD-1 mAb x IL-21 I8S, homodimer, the Kd stood at 4 nM. anti-PD-1 mAb x IL-21 Q12D, homodimer came in with a Kd of 0.42 nM. On the same count and under the same terms, as for anti-PD-1 mAb x IL-21 P79D, homodimer, the figure is 0.32 nM.
